Laboratory results as given in PMC3663513.

Target: Pseudo-nitzschia multiseries ferritin (Pseudo-nitzschia multiseries)
Test: crystal structure; crystals of PmFTN grown by vapor diffusion (0.1 M sodium acetate pH 5.5, ammonium sulfate, NaCl), aerobic or anaerobic, soaked in 2 mM Fe(II) or 2 mM zinc sulfate; 24-mer shell built from 8 (P23) or 6 (P42(1)2) subunits in the asymmetric unit

- stoichiometry N: 24 subunits
Substance: Pseudo-nitzschia multiseries ferritin (natural protein)
